Source: patent publication US20250092136A1 (Hoffmann-La Roche, published 2025)

What was measured:
[1] = target: T1, Biotinylated human CD3ε stalk-Fc (knob)-Avi / CD3δ stalk-Fc (hole) (human, biotinylated); test: SPR (Biacore T200), biotinylated CD3ε/δ-Fc on SA chip, TCB as analyte, 25 °C, 1:1 fit
T1 construct: also called human CD3ε/δ
Description: (§1) CD3 binding was investigated using surface plasmon resonance (SPR) on a Biacore T200 instrument (Cytiva). All experiments were performed at 25° C. using HEPES buffered saline (20 mM HEPES, 140 mM NaCl, 0.05% PS-20) pH 7.4. The experimental setup is schematically depicted in FIG. 3.
(§2) Biotinylated human and cynomolgus CD3ε stalk-Fc (knob)-Avi/[…] stalk-Fc (hole) (CD3E/8, see SEQ ID NOs 49 and 50 (human) and SEQ ID NOs 51 and 52 (cynomolgus)) were coupled to a Series S Sensor Chip SA (Cytiva, #29104992) according to the manufacturer's instructions. A concentration series ranging from 0.37 to 300 nM (1:3) of the TCB antibody molecules were injected with 90 s association time, followed by a buffer wash of 300 s for monitoring the dissociation phase. Bulk refractive index differences were corrected by subtracting the response obtained from a mock surface. Blank injections were subtracted (double referencing). Kinetic constants were derived using the Biacore T200 Evaluation Software (Cytiva), to fit rate equations for 1:1 Langmuir binding by numerical integration. The half-life (t_{1/2}) of the interaction was calculated using the formula t_{1/2}=ln2/koff.

[2] = target: T2, Biotinylated cynomolgus CD3ε stalk-Fc (knob)-Avi / CD3δ stalk-Fc (hole) (cynomolgus, biotinylated); test: as above
T2 construct: Heterodimer of CD3 epsilon and CD3 delta ectodomains fused to Fc knob/hole; also called cynomolgus CD3ε/δ; cyno CD3
Description: as §1, §2

Insulin = test: polyreactivity ELISA, coated antigen 1 µg/ml, TCB 1 µg/ml
Description: (§3) Polyreactivity was tested using an ELISA-based read out. A set of different antigens depicted in Table 9 was coated on a Nunc MaxiSorp microtiter plate (Fisher Scientific) overnight at 4° C. with a concentration of 1 μg/ml in Dulbecco's phosphate buffered saline (DPBS, PAN Biotech #P04-36500) each. After washing the plate two times using PBS (Roche Diagnostics #11666789001) containing 0.1% Tween-20, plates were blocked with DPBS, 2% bovine serum albumin (BSA, Roche Diagnostics #10735108001) for 1 hour at room temperature. After washing the plate three times, the HER2 TCBs were added with a concentration of 1 μg/ml diluted in DPBS and incubated for 1 hour at room temperature. Subsequently, plates were washed three times and an anti-human IgG F(ab′)2-HRP (Jackson ImmunoResearch #109-036-006) diluted 1:5000 in PBS, 0.5% BSA, 0.05% Tween-20 was added. After incubation for 1 hour at room temperature and washing for four times, TMB substrate (Sigma-Aldrich #T0440) was added and absorption was measured at 370/492 nm.

[3] = target: human CD3ε (coated antigen of the polyreactivity ELISA) (human, UniProt P07766 23-126, limits assumed); test: as above
Description: as §3

Streptavidin [4] = target: T3, Streptavidin (UniProt P22629 37-163, limits assumed); test: as above
Description: as §3

Bovine Serum Albumin [5] = target: T4, Bovine Serum Albumin (bovine, UniProt P02769 25-607); test: as above
T4 construct: also called BSA
Description: as §3

Gelatine (2%) = test: as above
Description: as §3

HSP90 = test: as above
Description: as §3

Histone H4 aa2-24 [6] = target: T5, Histone H4 aa2-24 (UniProt P62805 2-24); test: as above
T5 construct: range 2-24
Description: as §3

Apolipoprotein A-1 = test: as above
Description: as §3

Hemocyanin = test: as above
Description: as §3

[7] = target: T6, Human CD3 on Jurkat NFAT reporter cells (human, UniProt P07766 23-207); test: flow cytometry on CD3-expressing Jurkat NFAT reporter cells, PE-conjugated anti-human IgG Fc secondary antibody, median fluorescence intensity
T6 construct: CD3 complex on the cell surface; also called CD3 on Jurkat cells; CD3 antigen (expressed on Jurkat-NFAT reporter cells)
Description: The antibody staining was performed in a 96-well round bottom plate. Therefore 200′000 cells were seeded per well.

Streptavidin [8] = target: T3, Streptavidin; test: polyreactivity ELISA, coated antigen
Description: as §3

Bovine Serum Albumin [9] = target: T4, Bovine Serum Albumin; test: polyreactivity ELISA, coated antigen
Description: as §3

Histone H4 aa2-24 [10] = target: T5, Histone H4 aa2-24; test: polyreactivity ELISA, coated antigen
Description: as §3

Chain of human CD3ε (coated antigen of the polyreactivity ELISA) (P07766 23-126 limits assumed): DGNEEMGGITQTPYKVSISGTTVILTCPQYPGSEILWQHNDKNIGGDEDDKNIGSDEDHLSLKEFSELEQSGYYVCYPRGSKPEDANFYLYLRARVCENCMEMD
T3 sequence (P22629 37-163 limits assumed): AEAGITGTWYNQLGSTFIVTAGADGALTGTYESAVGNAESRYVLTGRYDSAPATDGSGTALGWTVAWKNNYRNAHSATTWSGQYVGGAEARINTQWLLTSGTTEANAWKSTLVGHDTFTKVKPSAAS
T4 sequence (P02769 25-607 limits assumed): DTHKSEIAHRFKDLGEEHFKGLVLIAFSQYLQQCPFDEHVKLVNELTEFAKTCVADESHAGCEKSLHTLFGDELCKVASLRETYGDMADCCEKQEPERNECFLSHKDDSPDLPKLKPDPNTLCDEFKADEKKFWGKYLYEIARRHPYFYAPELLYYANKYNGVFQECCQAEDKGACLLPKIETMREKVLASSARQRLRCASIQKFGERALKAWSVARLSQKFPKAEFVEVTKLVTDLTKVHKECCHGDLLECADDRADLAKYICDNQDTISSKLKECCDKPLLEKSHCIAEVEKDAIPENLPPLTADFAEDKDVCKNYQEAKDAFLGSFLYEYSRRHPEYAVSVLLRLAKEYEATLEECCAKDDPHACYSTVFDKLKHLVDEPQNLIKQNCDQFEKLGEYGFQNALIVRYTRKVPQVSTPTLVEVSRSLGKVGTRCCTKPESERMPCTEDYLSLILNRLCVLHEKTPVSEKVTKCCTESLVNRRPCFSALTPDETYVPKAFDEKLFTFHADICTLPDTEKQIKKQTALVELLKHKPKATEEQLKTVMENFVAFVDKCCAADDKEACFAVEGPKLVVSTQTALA
Chain of Apolipoprotein A-1 (P02647 25-267): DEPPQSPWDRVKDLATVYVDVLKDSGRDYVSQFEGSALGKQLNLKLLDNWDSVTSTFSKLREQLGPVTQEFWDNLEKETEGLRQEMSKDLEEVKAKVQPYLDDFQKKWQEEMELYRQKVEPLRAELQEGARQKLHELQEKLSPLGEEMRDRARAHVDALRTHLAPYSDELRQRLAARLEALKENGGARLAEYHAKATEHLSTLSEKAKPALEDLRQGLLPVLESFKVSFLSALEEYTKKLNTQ
T1 sequence (chain, as listed by the source mutant limits assumed, chain 1 of 2): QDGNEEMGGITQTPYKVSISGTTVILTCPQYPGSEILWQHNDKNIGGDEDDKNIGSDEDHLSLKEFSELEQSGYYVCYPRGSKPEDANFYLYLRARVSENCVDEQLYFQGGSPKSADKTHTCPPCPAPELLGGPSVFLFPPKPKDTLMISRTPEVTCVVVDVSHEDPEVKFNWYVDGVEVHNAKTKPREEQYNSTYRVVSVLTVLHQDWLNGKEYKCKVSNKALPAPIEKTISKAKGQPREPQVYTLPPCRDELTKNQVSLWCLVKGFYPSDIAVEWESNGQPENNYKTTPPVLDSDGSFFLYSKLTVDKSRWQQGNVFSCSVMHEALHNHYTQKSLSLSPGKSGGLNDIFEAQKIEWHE
T1 sequence (chain, as listed by the source mutant limits assumed, chain 2 of 2): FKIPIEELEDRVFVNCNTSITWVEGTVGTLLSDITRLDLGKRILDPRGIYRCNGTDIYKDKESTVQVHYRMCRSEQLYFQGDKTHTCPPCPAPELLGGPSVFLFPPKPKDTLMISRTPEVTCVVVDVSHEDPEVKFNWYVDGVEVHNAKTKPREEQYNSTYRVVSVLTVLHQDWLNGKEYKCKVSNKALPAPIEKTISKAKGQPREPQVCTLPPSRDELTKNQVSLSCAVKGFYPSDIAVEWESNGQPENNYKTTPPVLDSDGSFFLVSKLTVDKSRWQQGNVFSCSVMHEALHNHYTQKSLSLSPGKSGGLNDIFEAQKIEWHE
T2 sequence (chain, as listed by the source mutant limits assumed, chain 1 of 2): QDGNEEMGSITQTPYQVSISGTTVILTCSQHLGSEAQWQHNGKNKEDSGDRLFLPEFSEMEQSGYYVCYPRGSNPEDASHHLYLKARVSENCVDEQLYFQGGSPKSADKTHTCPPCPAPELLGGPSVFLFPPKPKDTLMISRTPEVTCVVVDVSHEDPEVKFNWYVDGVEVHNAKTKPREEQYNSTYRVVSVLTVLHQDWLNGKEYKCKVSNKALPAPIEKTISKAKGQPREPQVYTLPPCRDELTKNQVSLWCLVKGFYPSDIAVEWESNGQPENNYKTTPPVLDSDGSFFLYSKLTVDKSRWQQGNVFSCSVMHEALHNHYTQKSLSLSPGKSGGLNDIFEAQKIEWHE
T2 sequence (chain, as listed by the source mutant limits assumed, chain 2 of 2): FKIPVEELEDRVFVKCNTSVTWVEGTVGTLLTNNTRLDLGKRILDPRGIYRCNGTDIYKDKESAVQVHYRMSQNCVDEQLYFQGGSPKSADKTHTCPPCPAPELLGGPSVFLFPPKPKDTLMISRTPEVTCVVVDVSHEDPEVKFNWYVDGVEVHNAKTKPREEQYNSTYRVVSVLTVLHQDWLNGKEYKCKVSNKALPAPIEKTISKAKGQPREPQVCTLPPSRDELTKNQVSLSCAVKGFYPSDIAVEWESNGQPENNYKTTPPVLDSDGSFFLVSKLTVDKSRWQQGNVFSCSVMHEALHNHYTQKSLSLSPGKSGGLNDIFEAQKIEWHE
T6 sequence (P07766 23-207 limits assumed): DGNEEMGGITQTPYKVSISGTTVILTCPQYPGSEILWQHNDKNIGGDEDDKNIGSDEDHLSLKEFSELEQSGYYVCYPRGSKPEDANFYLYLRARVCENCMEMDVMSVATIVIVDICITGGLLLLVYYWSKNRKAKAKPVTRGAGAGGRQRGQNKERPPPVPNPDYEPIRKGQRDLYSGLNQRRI

Binder	Kd [1] [nM]	t1/2 [1] [s]	Kd [2] [nM]	t1/2 [2] [s]	Absorbance (OD) (Insulin)	Absorbance (OD) [3] [OD]	Absorbance (OD) (Streptavidin [4])	Absorbance (OD) (Bovine Serum Albumin [5])	Absorbance (OD) (Gelatine (2%))	Absorbance (OD) (HSP90)	Absorbance (OD) (Histone H4 aa2-24 [6])	Absorbance (OD) (Apolipoprotein A-1)	Absorbance (OD) (Hemocyanin)	EC50 (read off the curve) [7] [nM]	binding result (Streptavidin [8])	binding result (Bovine Serum Albumin [9])	binding result (Histone H4 aa2-24 [10])
HER2-TCB containing the parental CD3 binder P1AH4929 / CD3orig (bispecific antibody, human IgG1, kappa, L234A L235A, 2+1 IgG CrossFab, inverted: VH/VL exchange in the CD3 Fab, charge modifications in the two HER2 Fabs, knob-into-hole and P329G LALA in the Fc; also called PIAH4929) heavy 1: not shown heavy 2: not shown light 1: EVQLLESGGGLVQPGGSLRLSCAASGFTFSSYAMNWVRQAPGKGLEWVSRIRSKYNNYATYYADSVKGRFTISRDDSKNTLYLQMNSLRAEDTAVYYCVRASNFPASYVSYFAYWGQGTLVTVSSASVAAPSVFIFPPSDEQLKSGTASVVCLLNNFYPREAKVQWKVDNALQSGNSQESVTEQDSKDSTYSLSSTLTLSKADYEKHKVYACEVTHQGLSSPVTKSFNRGEC light 2: not shown	0.2	529	0.2	519	0.01	2.87	0	0	-0.01	0.02	0.05	0	0.02	~6	no binding (tested: 1 µg/ml)	no binding (tested: 1 µg/ml)	no binding (tested: 1 µg/ml)
HER2-TCB containing the optimized CD3 binder P1AI7913 (bispecific antibody, human IgG1, kappa, L234A L235A, 2+1 IgG CrossFab, inverted: VH/VL exchange in the CD3 Fab, charge modifications in the two HER2 Fabs, knob-into-hole and P329G LALA in the Fc; also called P1AI7913 (in TCB format)) heavy 1: not shown heavy 2: not shown light 1: EVQLLESGGGLVQPGGSLRLSCAASGFTFSSYAMNWVRQAPGKGLEWVGRVRTKYNNREPYYADSVKGRFTISRDDSKNTLYLQMNSLRAEDTAVYYCVRASNFPASYVSYFAYWGQGTLVTVSSASVAAPSVFIFPPSDEQLKSGTASVVCLLNNFYPREAKVQWKVDNALQSGNSQESVTEQDSKDSTYSLSSTLTLSKADYEKHKVYACEVTHQGLSSPVTKSFNRGEC light 2: not shown	1.5	81	1.3	81	0.04	2.83	0.01	0.01	0.01	0.03	0.06	0.01	0.07	–	no binding (tested: 1 µg/ml)	no binding (tested: 1 µg/ml)	no binding (tested: 1 µg/ml)
HER2-TCB containing the optimized CD3 binder P1AI7915 (bispecific antibody, human IgG1, kappa, L234A L235A, 2+1 IgG CrossFab, inverted; also called P1AI7915 (in TCB format)) heavy 1: not shown heavy 2: not shown light 1: EVQLLESGGGLVQPGGSLRLSCAASGFTFSSYAMNWVRQAPGKGLEWVGRQRTQYNNREDYYADSVKGRFTISRDDSKNTLYLQMNSLRAEDTAVYYCVRASNFPASYVSYFAYWGQGTLVTVSSASVAAPSVFIFPPSDEQLKSGTASVVCLLNNFYPREAKVQWKVDNALQSGNSQESVTEQDSKDSTYSLSSTLTLSKADYEKHKVYACEVTHQGLSSPVTKSFNRGEC light 2: not shown	11.5	30	9.7	31	0.04	2.99	0	0.01	0.01	0.07	0.07	0.01	0.08	–	no binding (tested: 1 µg/ml)	no binding (tested: 1 µg/ml)	no binding (tested: 1 µg/ml)
HER2-TCB containing the optimized CD3 binder P1AI7912 (bispecific antibody, human IgG1, kappa, L234A L235A, 2+1 IgG CrossFab, inverted: VH/VL exchange in the CD3 Fab, charge modifications in the two HER2 Fabs, knob-into-hole and P329G LALA in the Fc; also called P1AI7912 (in TCB format)) heavy 1: not shown heavy 2: not shown light 1: EVQLLESGGGLVQPGGSLRLSCAASGFTFSSYAMNWVRQAPGKGLEWVGRVRTTYNNREPYYADSVKGRFTISRDDSKNTLYLQMNSLRAEDTAVYYCVRASNFPASYVSYFAYWGQGTLVTVSSASVAAPSVFIFPPSDEQLKSGTASVVCLLNNFYPREAKVQWKVDNALQSGNSQESVTEQDSKDSTYSLSSTLTLSKADYEKHKVYACEVTHQGLSSPVTKSFNRGEC light 2: not shown	12.6	11	11.3	11	0.02	2.2	0	0	-0.01	0.07	0	0.01	0.02	–	no binding (tested: 1 µg/ml)	no binding (tested: 1 µg/ml)	no binding (tested: 1 µg/ml)
